# Substrate: OC[C@H]1O[C@@H](n2cnc3c(O)ncnc32)[C@H](O)[C@@H]1O
# Assay: HPLC of hypoxanthine formed, Michaelis-Menten fit
# Type: biochemical, Agaricus bisporus
# Details: phosphorolysis, potassium phosphate co-substrate (50 mM in the standard assay), pH 7.0, 60 °C, 0–16 mM inosine, b52 prints the unit as µmol
protein,measurement,value
"AbPNP (Agaricus bisporus var. burnettii JB137-S8) (protein, N-terminal 6xHis tag; codon-optimized gene in pPIC9K, Pichia pastoris GS115, Ni-NTA purified) MKTNILSTVEYIRSQLPPELQQPRVGIVCGSGLSGLAGIIQNIHTIPYANIPGFGTSTVPGHRSELAFGLLGKNGVPVVAMLGRFHFYEGHPLSTVVYPIRVMARLGITEILITNAAGSLNPDIPTGTIVVVHDHIAFPGMAGTNPLMGPQTSPEHPRFLALSDAYSPSLRRLLFLAAHQLSLSKSALAEGTYAWVSGPNYETPAEGILLRSIGVDVVGMSTVPEVLVAREEGLKVMVLSLVTNLVVIPPSYKSIREEVEAELAGQSFVTPEEQVVSHDEVLAVGKEKAEVIKSLVQRVVELLS",Km,7.10 µM
same,kcat,14.38 s⁻¹

# Source: PMC12028538, “The Characterization of the Purine Nucleoside Phosphorylase from Agaricus bisporus and Its Potential Application in Reducing Purine Content in Beer” (Journal of Fungi, 2025)
